Laboratory results from patent EP4737479A1 (Bio-Thera Solutions, Ltd., dated 2026).

Molecular target: T1, antigen 4-1BB (Sino Biological, Cat. No. 10041-H08H) (UniProt Q07011 24-186)
T1 construct: Bought protein used as SPR analyte; also called CD137
Assay: SPR (Biacore T200), sample captured on the chip by Fc, 4-1BB as analyte

T1 sequence (Q07011 24-186 limits assumed): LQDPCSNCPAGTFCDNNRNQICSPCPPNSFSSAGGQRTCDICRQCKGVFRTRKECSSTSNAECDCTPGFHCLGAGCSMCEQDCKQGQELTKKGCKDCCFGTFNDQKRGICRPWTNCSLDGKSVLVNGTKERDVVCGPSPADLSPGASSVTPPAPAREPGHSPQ

B1: Urelumab (antibody, V domains shown)
VH: QVQLQQWGAGLLKPSETLSLTCAVYGGSFSGYYWSWIRQSPEKGLEWIGEINHGGYVTYNPSLESRVTISVDTSKNQFSLKLSSVTAADTAVYYCARDYGPGNYDWYFDLWGRGTLVTVSS
VL: EIVLTQSPATLSLSPGERATLSCRASQSVSSYLAWYQQKPGQAPRLLIYDASNRATGIPARFSGSGSGTDFTLTISSLEPEDFAVYYCQQRSNWPPALTFGGGTKVEIK
- Kd: 3.22 nM
- koff: 0.00159 s⁻¹
- kon: 496000 M⁻¹ s⁻¹
